According to IntAct's records for PubMed 11779178:

B1: Merlin (Homo sapiens), P35240-3 (parent)
chain: MAGAIASRMSFSSLKRKQPKTFTVRIVTMDAEMEFNCEMKWKGKDLFDLVCRTLGLRETWFFGLQYTIKDTVAWLKMDKKVLDHDVSKEEPVTFHFLAKFYPENAEEELVQEITQHLFFLQVKKQILDEKIYCPPEASVLLASYAVQAKYGDYDPSVHKRGFLAQEELLPKRVINLYQMTPEMWEERITAWYAEHRGRARDEAEMEYLKIAQDLEMYGVNYFAIRNKKGTELLLGVDALGLHIYDPENRLTPKISFPWNEIRNISYSDKEFTIKPLDKKIDVFKFNSSKLRVNKLILQLCIGNHDLFMRRRKADSLEVQQMKAQAREEKARKQMERQRLAREKQMREEAERTRDELERRLLQMKEEATMANEALMRSEETADLLAEKAQITEEEAKLLAQKAAEAEQEMQRIKATAIRTEEEKRLMEQKVLEAEVLALKMAEESERRAKEADQLKQDLQEAREAERRAKQKLLEIATKPTYPPMNPIPAPLPPDIPSFNLIGDSLSFDFKDTDMKRLSMEIEKEKVEYMEKSKHLQEQLNELKTEIEALKLKERETALDILHNENSDRGGSSKHNTIKKPQAQGRRPICI

What was measured:
[1] = variants of: B1; conditions: with eif3c_human EIF3C
[2] = variants of: B1; conditions: with HGS
[3] = variants of: B1; conditions: with HGS
[4] = variants of: B1; conditions: with NF2, P35240-1
[5] = variants of: B1; conditions: with sptb2_human SPTBN1, Q01082
sptb2_human SPTBN1, Q01082, sequence (Q01082 whole entry): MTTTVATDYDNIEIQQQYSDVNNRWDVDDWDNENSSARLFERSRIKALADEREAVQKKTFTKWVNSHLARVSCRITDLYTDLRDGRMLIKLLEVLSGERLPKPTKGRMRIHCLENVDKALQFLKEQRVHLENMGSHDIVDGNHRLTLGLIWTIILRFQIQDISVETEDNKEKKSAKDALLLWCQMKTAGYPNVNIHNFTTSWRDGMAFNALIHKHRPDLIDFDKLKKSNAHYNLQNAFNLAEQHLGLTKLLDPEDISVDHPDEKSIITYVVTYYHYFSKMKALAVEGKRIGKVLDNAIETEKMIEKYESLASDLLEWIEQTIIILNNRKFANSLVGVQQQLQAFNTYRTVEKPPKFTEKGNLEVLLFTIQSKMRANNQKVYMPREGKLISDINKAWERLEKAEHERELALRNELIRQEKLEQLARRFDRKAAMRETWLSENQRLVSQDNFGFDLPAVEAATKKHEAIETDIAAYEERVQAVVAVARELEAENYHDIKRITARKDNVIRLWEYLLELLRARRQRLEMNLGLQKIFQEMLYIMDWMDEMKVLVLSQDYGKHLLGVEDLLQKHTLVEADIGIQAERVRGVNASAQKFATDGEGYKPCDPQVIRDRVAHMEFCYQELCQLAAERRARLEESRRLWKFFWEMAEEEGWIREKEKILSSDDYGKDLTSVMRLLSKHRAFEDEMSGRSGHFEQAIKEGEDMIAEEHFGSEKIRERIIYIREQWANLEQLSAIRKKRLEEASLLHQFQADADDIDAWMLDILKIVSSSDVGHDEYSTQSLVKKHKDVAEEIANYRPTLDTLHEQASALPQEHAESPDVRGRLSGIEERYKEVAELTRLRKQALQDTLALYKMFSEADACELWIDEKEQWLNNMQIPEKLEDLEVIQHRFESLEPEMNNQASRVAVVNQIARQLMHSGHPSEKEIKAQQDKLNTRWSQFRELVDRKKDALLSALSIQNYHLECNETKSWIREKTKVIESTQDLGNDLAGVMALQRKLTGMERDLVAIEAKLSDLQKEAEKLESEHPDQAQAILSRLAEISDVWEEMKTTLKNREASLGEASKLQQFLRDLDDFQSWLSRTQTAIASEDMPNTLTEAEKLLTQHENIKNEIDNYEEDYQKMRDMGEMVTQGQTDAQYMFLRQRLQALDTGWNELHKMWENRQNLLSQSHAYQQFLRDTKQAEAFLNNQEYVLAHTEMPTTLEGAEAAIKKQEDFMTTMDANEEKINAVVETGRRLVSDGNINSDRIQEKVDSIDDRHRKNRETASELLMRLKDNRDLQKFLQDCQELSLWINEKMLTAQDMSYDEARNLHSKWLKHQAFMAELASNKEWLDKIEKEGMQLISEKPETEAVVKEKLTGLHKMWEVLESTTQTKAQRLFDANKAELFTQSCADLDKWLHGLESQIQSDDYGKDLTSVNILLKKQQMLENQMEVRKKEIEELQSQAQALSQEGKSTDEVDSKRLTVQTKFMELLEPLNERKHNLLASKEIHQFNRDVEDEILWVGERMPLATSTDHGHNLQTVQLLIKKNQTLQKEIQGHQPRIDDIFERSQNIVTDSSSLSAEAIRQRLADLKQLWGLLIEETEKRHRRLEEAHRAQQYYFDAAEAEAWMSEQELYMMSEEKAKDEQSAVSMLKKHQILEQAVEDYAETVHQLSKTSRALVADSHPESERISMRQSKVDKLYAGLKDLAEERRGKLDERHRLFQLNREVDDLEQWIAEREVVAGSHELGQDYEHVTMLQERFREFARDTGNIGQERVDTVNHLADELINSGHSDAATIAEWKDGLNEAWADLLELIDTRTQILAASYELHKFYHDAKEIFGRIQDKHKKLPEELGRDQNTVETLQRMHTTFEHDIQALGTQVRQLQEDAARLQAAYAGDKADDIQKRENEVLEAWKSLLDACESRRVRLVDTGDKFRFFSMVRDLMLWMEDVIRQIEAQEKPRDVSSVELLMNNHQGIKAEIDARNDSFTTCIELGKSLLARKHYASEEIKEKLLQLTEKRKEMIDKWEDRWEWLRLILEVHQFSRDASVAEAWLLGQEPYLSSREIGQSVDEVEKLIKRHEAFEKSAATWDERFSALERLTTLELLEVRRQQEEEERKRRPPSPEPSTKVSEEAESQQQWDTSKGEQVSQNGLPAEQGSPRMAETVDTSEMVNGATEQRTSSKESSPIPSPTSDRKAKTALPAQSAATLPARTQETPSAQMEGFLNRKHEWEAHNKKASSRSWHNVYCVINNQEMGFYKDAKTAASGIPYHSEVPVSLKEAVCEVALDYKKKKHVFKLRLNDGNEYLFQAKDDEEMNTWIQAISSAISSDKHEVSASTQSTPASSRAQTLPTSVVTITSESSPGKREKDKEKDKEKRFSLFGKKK

| effect of a mutation on the interaction [1] | effect of a mutation on the interaction [2] | effect of a mutation on the interaction [3] | effect of a mutation on the interaction [4] | effect of a mutation on the interaction [5] | Variant |
| --- | --- | --- | --- | --- | --- |
| with no effect | with no effect | with no effect | increasing interaction strength | decreasing interaction strength | MAGAIASRMSFSSLKRKQPKTFTVRIVTMDAEMEFNCEMKWKGKDLFDLVCRTLGLRETWFFGLQYTIKDTVAWLKMDKKVLDHDVSKEEPVTFHFLAKFYPENAEEELVQEITQHLFFLQVKKQILDEKIYCPPEASVLLASYAVQAKYGDYDPSVHKRGFLAQEELLPKRVINLYQMTPEMWEERITAWYAEHRCRARDEAEMEYLKIAQDLEMYGVNYFAIRNKKGTELLLGVDALGLHIYDPENRLTPKISFPWNEIRNISYSDKEFTIKPLDKKIDVFKFNSSKLRVNKLILQLCIGNHDLFMRRRKADSLEVQQMKAQAREEKARKQMERQRLAREKQMREEAERTRDELERRLLQMKEEATMANEALMRSEETADLLAEKAQITEEEAKLLAQKAAEAEQEMQRIKATAIRTEEEKRLMEQKVLEAEVLALKMAEESERRAKEADQLKQDLQEAREAERRAKQKLLEIATKPTYPPMNPIPAPLPPDIPSFNLIGDSLSFDFKDTDMKRLSMEIEKEKVEYMEKSKHLQEQLNELKTEIEALKLKERETALDILHNENSDRGGSSKHNTIKKPQAQGRRPICI [G197C] |
| decreasing interaction strength | increasing interaction strength | increasing interaction strength | with no effect | increasing interaction strength | MAGAIASRMSFSSLKRKQPKTFTVRIVTMDAEMEFNCEMKWKGKDLFDLVCRTLGLRETWFFGLQYTIKDTVAWLKMDKKVLDHDVSKEEPVTFHFLAKFYPENAEEELVQEITQHLFFLQVKKQILDEKIYCPPEASVLLASYAVQAKYGDYDPSVHKRGFLAQEELLPKRVINLYQMTPEMWEERITAWYAEHRGRARDEAEMEYLKIAQDLEMYGVNYFAIRNKKGTELLLGVDALGLHIYDPENRLTPKISFPWNEIRNISYSDKEFTFKPLDKKIDVFKFNSSKLRVNKLILQLCIGNHDLFMRRRKADSLEVQQMKAQAREEKARKQMERQRLAREKQMREEAERTRDELERRLLQMKEEATMANEALMRSEETADLLAEKAQITEEEAKLLAQKAAEAEQEMQRIKATAIRTEEEKRLMEQKVLEAEVLALKMAEESERRAKEADQLKQDLQEAREAERRAKQKLLEIATKPTYPPMNPIPAPLPPDIPSFNLIGDSLSFDFKDTDMKRLSMEIEKEKVEYMEKSKHLQEQLNELKTEIEALKLKERETALDILHNENSDRGGSSKHNTIKKPQAQGRRPICI [I273F] |
